1 molecule from US20170158755A1 (PROTHENA BIOSCIENCES, published 2017) can be followed below.

This assay deals with T1, human MCAM-Fc fusion protein (human, UniProt P43121 24-559).
T1 construct: Made in house by fusing the extracellular domain of human MCAM to human IgG1, produced in CHO cells; also called hMCAM-Fc; not shown: human IgG1 (Fc part of the fusion)
T1 sequence: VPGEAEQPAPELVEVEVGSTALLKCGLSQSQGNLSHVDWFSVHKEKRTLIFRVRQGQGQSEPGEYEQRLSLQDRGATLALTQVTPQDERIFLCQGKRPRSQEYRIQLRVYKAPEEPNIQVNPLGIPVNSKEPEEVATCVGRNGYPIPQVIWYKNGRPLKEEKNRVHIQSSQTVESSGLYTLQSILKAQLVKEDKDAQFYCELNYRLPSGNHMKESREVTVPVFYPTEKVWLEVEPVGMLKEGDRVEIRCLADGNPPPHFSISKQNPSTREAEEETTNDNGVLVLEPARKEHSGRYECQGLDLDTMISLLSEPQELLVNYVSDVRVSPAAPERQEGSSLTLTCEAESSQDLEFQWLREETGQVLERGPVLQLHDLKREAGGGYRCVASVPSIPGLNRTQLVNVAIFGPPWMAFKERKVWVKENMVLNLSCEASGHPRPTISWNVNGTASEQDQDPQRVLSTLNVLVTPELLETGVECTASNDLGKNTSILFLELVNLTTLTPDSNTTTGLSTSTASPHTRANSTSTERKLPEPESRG
As to the kind of experiment: ELISA, MCAM-Fc captured via goat anti-human Fab. How it is done: To determine the LAMA4 epitope(s)/domain(s) necessary for MCAM binding, recombinant MCAM-Fc (or Fc control) protein was prebound to plates via goat anti-human Fabs overnight. Truncated recombinant variants of the LAMA4 G domain (and Tau control protein) were assayed for their ability to bind MCAM-Fc protein as described in the Materials and Methods and as shown in FIG. 6. The results are presented in arbitrary units (A.U.) on the y-axis. […] Therefore, the LG1-3 modules of the G domain of LAMA4 mediate LAMA4-MCAM interactions.
Background: In an ELISA, binding on a coated surface is turned into a signal by an enzyme label.

B1: His-tagged recombinant LAMA4 G-domain variant with LG modules 4-5 (ligand)
chain: RNSHCHLSNSPRAIEHAYQYGGTANSRQEFEHLKGDFGAKSQFSIRLRTRSSHGMIFYVSDQEENDFMTLFLAHGRLVYMFNVGHKKLKIRSQEKYNDGLWHDVIFIRERSSGRLVIDGLRVLEESLPPTEATWKIKGPIYLGGVAPGKAVKNVQINSIYSFSGCLSNLQLNGASITSASQTFSVTPCFEGPMETGTYFSTEGGYVVLDESFNIGLKFEIAFEVRPRSSSGTLVHGHSVNGEYLNVHMKNGQVIVKVNNGIRDFSTSVTPKQSLCDGRWHRITVIRDSNVVQLDVDSEVNHVVGPLNPKPIDHREPVFVGGVPESLLTPRLAPSKPFTGCIRHFVIDGHPVSFSKAALVSGAVSINSCP
notes: also called LAMA4 variant containing the LG modules 4-5; LG4-5
Consider B1, for which the binding result is “no binding”.
